Source: patent publication US20210395344A1 (TWIST BIOSCIENCE, published 2021)
Like-named read-outs stand apart in the source and are kept apart here.

What was measured:
Test in all cases: phage ELISA
[1] = molecular target: T1, Acro COVID S1 (S1N-C82E8) (SARS-CoV-2, UniProt P0DTC2 16-685)
T1 construct: domain: S1

[2] = molecular target: T1, Acro COVID S1 (S1N-C82E8); remark: listed apart in the source
[3] = molecular target: T2, Acro COVID S1 (S1N-C82E8) (SARS-CoV-2, UniProt P0DTC2 16-685)
T2 construct: domain: S1 (subunit 1)

Binder	ELISA fold over background [1] [fold over background]	ELISA fold over background [2] [fold over background]	specificity ELISA, fold over background [3] [fold over background]
1-29 (antibody, V domains shown, also called variant 1-29) VH: EVQLLESGGGLVQPGGSLRLSCAASGFTFSSYAMYWVRQAPGKGLEWVSAISGSAGSTYYADSVKGRFTISRDNSKNTLYLQMNSLRAEDTAVYYCARDTNDFWSGYSIFDPWGQGTLVTVSS VL: QSALTQPASVSGSPGQSITISCTGTSSDIGSYNLVSWYQQHPGKAPKLMIYEGTKRPSGVSNRFSGSKSGNTASLTISGLQAEDEADYYCCSYAGSRTYVFGGGTKLTVL	1.1	1.1	–
1-2 (antibody, V domains shown, also called variant 1-2) VH: EVQLLESGGGLVQPGGSLRLSCAASGFTFSSQAMSWVRQAPGKGLEWVSAISGSGGGTYYADSVKGRFTISRDNSKNTLYLQMNSLRAEDTAVYYCAKDRRFGEFDPWGQGTLVTVSS VL: QSALTQPASVSGSPGQSITISCTGTSSGVGSYNLVSWYQQHPGKAPKLMIYEGIKRPSGVSNRFSGSKSGNTASLTISGLQAEDEADYYCCSYAGSSSFVVFGGGTKLTVL	1.8	1.8	–
1-3 (antibody, V domains shown, also called variant 1-3) VH: EVQLLESGGGLVQPGGSLRLSCAASGFTFSSQAMSWVRQAPGKGLEWVSAISGSGGGTYYADSVKGRFTISRDNSKNTLYLQMNSLRAEDTAVYYCAKDRRFGEFDPWGQGTLVTVSS VL: QSALTQPASVSGSPGQSITISCTGISSDVGSYNLVSWYQQHPGKAPKLMIYEGTKRPSGVSNRFSGSKSGNTASLTISGLQAEDEADYYCCSYAGSSSFVVFGGGTKLTVL	1.6	1.6	–
1-4 (antibody, V domains shown, also called variant 1-4) VH: EVQLLESGGGLVQPGGSLRLSCAASGFTFSSQAMSWVRQAPGKGLEWVSAISGSGGGTYYADSVKGRFTISRDNSKNTLYLQMNSLRAEDTAVYYCAKDRRFGEFDPWGQGTLVTVSS VL: QSALTQPASVSGSPGQSITISCTGTSSDVGTYNLVSWYQQHPGKAPKLMIYEGSQRPSGVSNRFSGSKSGNTASLTISGLQAEDEADYYCCSYAGSSSFVVFGGGTKLTVL	1	1	–
1-5 (antibody, V domains shown, also called variant 1-5) VH: EVQLLESGGGLVQPGGSLRLSCAASGFTFSSQAMSWVRQAPGKGLEWVSAISGSGGGTYYADSVKGRFTISRDNSKNTLYLQMNSLRAEDTAVYYCAKDRRFGEFDPWGQGTLVTVSS VL: QSALTQPASVSGSPGQSITISCTGTSSGVGSYNLVSWYQQHPGKAPKLMIYEASKRPSGVSNRFSGSKSGNTASLTISGLQAEDEADYYCCSYAGSYTFAVFGGGTKLTVL	1.5	1.5	–
1-47 (antibody, V domains shown, also called variant 1-47) VH: EVQLLESGGGLVQPGGSLRLSCAASGFTFSSQAMSWVRQAPGKGLEWVSAISGSGGGTYYADSVKGRFTISRDNSKNTLYLQMNSLRAEDTAVYYCAKDRRFGEFDPWGQGTLVTVSS VL: QSALTQPASVSGSPGQSITISCTGTSSGVGSYNLVSWYQQHPGKAPKLMIYEGIKRPSGVSNRFSGSKSGNTASLTISGLQAEDEADYYCCSYAGSSSFVVFGGGTKLTVL	8.1	8.1	–
SARS-CoV-2 variant 1-42 (antibody, V domains shown) VH: EVQLLESGGGLVQPGGSLRLSCAASGVTFSSYAMSWVRQAPGKGLEWVSAITGSGGSTYYADSVKGRFTISRDNSKNTLYLQMNSLRAEDTAVYYCAKHGSGTIFGVVIAKYYFDYWGQGTLVTVSS VL: QSALTQPASVSGSPGQSITISCTGTSSDVGRYNLVSWYQQHPGKAPKLMIYEGGKRPSGVSNRFSGSKSGNTASLTISGLQAEDEADYYCCSYASSSTLVFGGGTKLTVL	–	–	22.7
SARS-CoV-2 variant 1-8 (antibody, V domains shown) VH: EVQLLESGGGLVQPGGSLRLSCAASGFTFSSYDMSWVRQAPGKGLEWVSVISGSGGSTYYADSVKGRFTISRDNSKNTLYLQMNSLRAEDTAVYYCAKGPLVGWYFDLWGQGTLVTVSS VL: QSALTQPASVSGSPGQSITISCTGTSNDVGSYNLVSWYQQHPGKAPKLMIYEGSKRPSGVSNRFSGSKSGNTASLTISGLQAEDEADYYCCSYAGSRYVVFGGGTKLTVL	–	–	12
SARS-CoV-2 variant 1-41 (antibody, V domains shown) VH: EVQLLESGGGLVQPGGSLRLSCAASGFTFSSYDMSWVRQAPGKGLEWVSVISGSGGSTYYADSVKGRFTISRDNSKNTLYLQMNSLRAEDTAVYYCAKGPLVGWYFDLWGQGTLVTVSS VL: QSALTQPASVSGSPGQSITISCTGTSSDIGSYNLVSWYQQHPGKAPKLMIYEGTKRPSGVSNRFSGSKSGNTASLTISGLQAEDEADYYCCSYAGSRTYVFGGGTKLTVL	–	–	4.5
SARS-CoV-2 variant 1-32 (antibody, V domains shown) VH: EVQLLESGGGLVQPGGSLRLSCAASGFTFSSYAMYWVRQAPGKGLEWVSAISGSGGSTFYADSVKGRFTISRDNSKNTLYLQMNSLRAEDTAVYYCTRPPYGDYGDYWGQGTLVTVSS VL: QSALTQPASVSGSPGQSITISCTGTSSDVGGYNLVSWYQQHPGKAPKLMIYEGNKRPSGVSNRFSGSKSGNTASLTISGLQAEDEADYYCCSYAGSSTFPVVFGGGTKLTVL	–	–	11.5
SARS-CoV-2 variant 1-27 (antibody, V domains shown) VH: EVQLLESGGGLVQPGGSLRLSCAASGFTFSSYAMTWVRQAPGKGLEWVSAISGSGGGTYYADSVKGRFTISRDNSKNTLYLQMNSLRAEDTAVYYCASSSSWQFDYWGQGTLVTVSS VL: QSALTQPASVSGSPGQSITISCTGTSSYVGHYNLVSWYQQHPGKAPKLMIYEGSRRPSGVSNRFSGSKSGNTASLTISGLQAEDEADYYCCSYAGSYTHYVFGGGTKLTVL	–	–	1.5
SARS-CoV-2 variant 1-28 (antibody, V domains shown) VH: EVQLLESGGGLVQPGGSLRLSCAASGFTFSSYGMSWVRQAPGKGLEWVSAISGSGGGTYYADSVKGRFTISRDNSKNTLYLQMNSLRAEDTAVYYCASSSSWQFDYWGQGTLVTVSS VL: QSALTQPASVSGSPGQSITISCTGTSSGVGSYNLVSWYQQHPGKAPKLMIYEGSQRPSGVSNRFSGSKSGNTASLTISGLQAEDEADYYCCSYAGSSTHYVFGGGTKLTVL	–	–	1
SARS-CoV-2 variant 1-21 (antibody, V domains shown) VH: EVQLLESGGGLVQPGGSLRLSCAASGFTFSSYTMSWVRQAPGKGLEWVSIISGSGGSTYYADSVKGRFTISRDNSKNTLYLQMNSLRAEDTAVYYCAREGYRDYLWYFDLWGQGTLVTVSS VL: QSALTQPASVSGSPGQSITISCTGTSSDVGSNNLVSWYQQHPGKAPKLMIYEGNKRPSGVSNRFSGSKSGNTASLTISGLQAEDEADYYCCSYAGSVVFGGGTKLTVL	–	–	19.5
SARS-CoV-2 variant 1-26 (antibody, V domains shown) VH: EVQLLESGGGLVQPGGSLRLSCAASGFTFSSYAISWVRQAPGKGLEWVSAISGSGYSTYYADSVKGRFTISRDNSKNTLYLQMNSLRAEDTAVYYCARGAPDSSGYYFQGEVYFDYWGQGTLVTVSS VL: QSALTQPASVSGSPGQSITISCTGTSSDVGGYNLVSWYQQHPGKAPKLMIYEGTKRPSGVSNRFSGSKSGNTASLTISGLQAEDEADYYCCSFVRSSAHVVFGGGTKLTVL	–	–	1.4
SARS-CoV-2 variant 1-47 (antibody, V domains shown) VH: EVQLLESGGGLVQPGGSLRLSCAASGFTFSSQAMSWVRQAPGKGLEWVSAISGSGGGTYYADSVKGRFTISRDNSKNTLYLQMNSLRAEDTAVYYCAKDRRFGEFDPWGQGTLVTVSS VL: QSALTQPASVSGSPGQSITISCTGTSSGVGSYNLVSWYQQHPGKAPKLMIYEGIKRPSGVSNRFSGSKSGNTASLTISGLQAEDEADYYCCSYAGSSSFVVFGGGTKLTVL	–	–	8.1
SARS-CoV-2 variant 1-29 (antibody, V domains shown) VH: EVQLLESGGGLVQPGGSLRLSCAASGFTFSSYAMYWVRQAPGKGLEWVSAISGSAGSTYYADSVKGRFTISRDNSKNTLYLQMNSLRAEDTAVYYCARDTNDFWSGYSIFDPWGQGTLVTVSS VL: QSALTQPASVSGSPGQSITISCTGTSSDIGSYNLVSWYQQHPGKAPKLMIYEGTKRPSGVSNRFSGSKSGNTASLTISGLQAEDEADYYCCSYAGSRTYVFGGGTKLTVL	–	–	1.1
SARS-CoV-2 variant 1-17 (antibody, V domains shown) VH: EVQLLESGGGLVQPGGSLRLSCAASGFTFSSYAMYWVRQAPGKGLEWVSAISGSAGSTYYADSVKGRFTISRDNSKNTLYLQMNSLRAEDTAVYYCARDTNDFWSGYSIFDPWGQGTLVTVSS VL: QSALTQPASVSGSPGQSITISCTGTSSDIGSYNLVSWYQQHPGKAPKLMIYEGTKRPSGVSNRFSGSKSGNTASLTISGLQAEDEADYYCCSYAGSRTYVFGGGTKLTVL	–	–	25.1
1-31 (antibody, V domains shown, also called variant 1-31) VH: EVQLLESGGGLVQPGGSLRLSCAASGFTFSSYAMNWVRQAPGKGLEWVSAISGSGGSTFYADSVKGRFTISRDNSKNTLYLQMNSLRAEDTAVYYCTRPPYGDYGDYWGQGTLVTVSS VL: QSALTQPASVSGSPGQSITISCTGTSSDVGKYNLVSWYQQHPGKAPKLMIYEGSQRPSGVSNRFSGSKSGNTASLTISGLQAEDEADYYCCSYAGSRTPVVFGGGTKLTVL	30.4	30.4	–
1-30 (antibody, V domains shown, also called variant 1-30) VH: EVQLLESGGGLVQPGGSLRLSCAASGFTFSSYAMTWVRQAPGKGLEWVSAISGSGGSTFYADSVKGRFTISRDNSKNTLYLQMNSLRAEDTAVYYCTRPPYGDYGDYWGQGTLVTVSS VL: QSALTQPASVSGSPGQSITISCTGTSRDVGSYNLVSWYQQHPGKAPKLMIYEGTKRPSGVSNRFSGSKSGNTASLTISGLQAEDEADYYCCSYAGSRTPVVFGGGTKLTVL	16.8	16.8	–
SARS-CoV-2 variant 1-37 (antibody, V domains shown) VH: EVQLLESGGGLVQPGGSLRLSCAASGFTFTSYAMNWVRQAPGKGLEWVTAISGSGGSTFYADSVKGRFTISRDNSKNTLYLQMNSLRAEDTAVYYCTRPPYGDYGDYWGQGTLVTVSS VL: QSALTQPASVSGSPGQSITISCTGTSSDIGSYNLVSWYQQHPGKAPKLMIYEGTKRPSGVSNRFSGSKSGNTASLTISGLQAEDEADYYCCSYAGSRTYVFGGGTKLTVL	–	–	11.6
